Laboratory results as given in article PMC3405907.

Tests used:
[1] = molecular target: capsid shell protein (CSP) of cytoplasmic polyhedrosis virus (cytoplasmic polyhedrosis virus (CPV)); experiment: cryo-EM structure
[2] = molecular target: turret protein (TP) of cytoplasmic polyhedrosis virus (cytoplasmic polyhedrosis virus (CPV)); experiment: cryo-EM structure

| Substance | stoichiometry N [1] | stoichiometry N [2] |
| --- | --- | --- |
| capsid shell protein (CSP) of cytoplasmic polyhedrosis virus (natural protein) | 120 | – |
| turret protein (TP) of cytoplasmic polyhedrosis virus (enzyme) | – | 5 |
